This note sets out measurements from PMC2926950 (Bioorganic & medicinal chemistry, 2009).

The target in experiment [1] is T1, hDMX_(1-200) (human, UniProt O15151 1-200).
T1 sequence (looked up): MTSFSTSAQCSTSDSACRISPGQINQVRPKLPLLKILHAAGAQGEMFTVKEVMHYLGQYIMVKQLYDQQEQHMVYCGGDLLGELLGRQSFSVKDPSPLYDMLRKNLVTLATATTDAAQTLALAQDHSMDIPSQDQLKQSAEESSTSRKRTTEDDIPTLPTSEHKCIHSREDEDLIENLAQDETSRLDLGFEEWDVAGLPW
Briefly: fluorescence polarisation.

Experiment [2] addresses T1, hDMX_(1-200). Briefly: fluorescence polarisation. The source holds these as a separate data set.

Ends that are not written are not given here.

For orientation: Kd means the equilibrium constant for the complex coming apart. Read a high Kd as weaker binding. The molecule SQETFSDLWKLLPENNV (peptide, UniProt P04637 15-31, looked up, also: fluorescent label (flu), position not given here) [p53AD15−31^flu] displayed a Kd with hDMX_(1-200) [1] of 841 ± 28.8 nM.
The IC50 is the concentration at which inhibition is half-maximal. A high value points to lower potency. In the case of MRPFMDYWEGLN [p53 12/1], the IC50 with hDMX_(1-200) [2] is 3870 ± 389 nM.
With MRPFMDYWEGLN (also: fluorescent label (flu), position not given here) [p53 12/1^flu], the Kd with hDMX_(1-200) [1] was determined as 237 ± 21.5 nM.
